This is an account of results in patent publication US20190218261A1, “TARGETED ENHANCED DNA DEMETHYLATION” (The Jackson Laboratory, priority 2016, published 2019).

The data set has as its system hMLH1 expression (methylation-silenced hMLH1 promoter) in HEK293T cells. Briefly: hMLH1 mRNA levels by TaqMan qRT-PCR in transfected HEK293T cells. It is filed as cell-based, human. How it is done: To test the system, HEK293T cells were transfected with Casilio-ME components including Ct or Nt-fusion TET1-effector and a combination of 3 or 2 sgRNAs. Relative levels of hMLH1 mRNA were determined in TaqMan assays by using RNA extracted from cells 60 hours post-transfection and GAPDH as endogenous control for normalization of qRT-PCR measurements.
Cell culture and transfection. HEK293T cells were cultivated in Dulbecco's modified Eagle's medium (DMEM)(Sigma) with 10% fetal bovine serum (FBS)(Lonza), 4% Glutamax (Gibco), 1% Sodium Pyruvate (Gibco) and penicillin-streptomycin (Gibco) in an incubator set to 37° C. and 5% CO2. When indicated cells were treated with 2.5 μM or 5 μM 5-Azacytidine (sigma) as indicated with a daily change of medium containing freshly diluted drug. Cells were seeded into 12-well plates at 150,000 cells per well the day before being transfected with 100 ng of dCas9 construct, 100 ng of modified sgRNA construct and 200 ng of PUF-fusion with Attractene transfection reagent according to manufacturer's instructions (Qiagen). In dCas9-direct fusion experiments, cells were transfected with 200 ng dCas9-fusion constructs and 200 ng of modified sgRNA constructs. Transfected cells were harvested 60 hours after transfection, or otherwise indicated, and cell pellets were used for extractions of RNA, genomic DNA and protein.
Quantitative RT-PCR analysis. Cells were harvested, washed with Dulbecco's phosphate-buffered saline (dPBS), centrifuged at 125×g for 5 min and then the flash-frozen pellets were stored at −80° C. RNA was extracted using RNeasy Plus Mini Kit according to the manufacturer's instructions (Qiagen). cDNA libraries were made using Applied Biosystems High Capacity RNA-to-cDNA kit with 200 ng to 1 μg of RNA. TaqMan gene expression assays (Applied Biosystems) were designed using GAPDH (Hs03929097, VIC) as endogenous control and hMLH1 (Hs00179866, FAM) as target. TaqMan Universal Master Mix II, with UNG (Applied Biosystems) was used for Quantitative PCR (qPCR), with 2 μl of diluted cDNA used for each reaction. Activation was analyzed with the Applied Biosystems ViiA7 instrument. Gene expression levels were calculated by “delta delta Ct” algorithm and normalized to control samples.
HEK293T cells were cultivated in Dulbecco's modified Eagle's medium (DMEM) (Sigma) with 10% fetal bovine serum (FBS) (Lonza), 4% Glutamax (Gibco), 1% Sodium Pyruvate (Gibco) and penicillin-streptomycin (Gibco) in an incubator set to 37° C. and 5% CO2. Cells were seeded into 12-well plates at 150,000 cells per well the day before being transfected with 100 ng of dCas9 construct, 100 ng of modified sgRNA construct and 200 ng of PUF-fusion with Attractene transfection reagent according to manufacturer's instructions (Qiagen). Transfected cells were harvested 3 days after transfection, or otherwise indicated, and cell pellets were used for RNA extractions.
Cells were harvested, washed with Dulbecco's phosphate-buffered saline (dPBS), centrifuged at 125×g for 5 min and then the flash-frozen pellets were stored at −80° C. RNA was extracted using RNeasy Plus Mini Kit according to the manufacturer's instructions (Qiagen). cDNA libraries were made using Applied Biosystems High Capacity RNA-to-cDNA kit with 200 ng to 2 μg of RNA. TaqMan gene expression assays (Applied Biosystems) were designed using GAPDH (Hs03929097, VIC) as endogenous control and hMLH1 (Hs00179866, FAM) as target. TaqMan Universal Master Mix II, with UNG (Applied Biosystems) was used for Quantitative PCR (qPCR), with 2 μl of diluted cDNA used for each reaction. Activation was analyzed with the Applied Biosystems ViiA7 instrument. Gene expression levels were calculated by “delta delta Ct” algorithm and normalized to control samples.

B1: PUFc-NEIL2: SEQ ID NO:127 (protein)
chain: MIDGGGGSDPKKKRKVDPKKKRKVDPKKKRKVGSTGSRNDGGGGSGGGGSGGGGSGRAGILPPKKKRKVSRGRSRLLEDFRNNRYPNLQLREIAGHIMEFSQDQHGSRFIQLKLERATPAERQLVFNEILQAAYQLMVDVFGNYVIQKFFEFGSLEQKLALAERIRGHVLSLALQMYGSRVIEKALEFIPSDQQNEMVRELDGHVLKCVKDQNGNHVVQKCIECVQPQSLQFIIDAFKGQVFALSTHPYGCRVIQRILEHCLPDQTLPILEELHQHTEQLVQDQYGSYVIEHVLEHGRPEDKSKIVAEIRGNVLVLSQHKFANNVVQKCVTHASRTERAVLIDEVCTMNDGPHSALYTMMKDQYANYVVQKMIDVAEPGQRKIVMHKIRPHIATLRKYTYGKHILAKLEKYYMKNGVDLGDPKKKRKVDPKKKRKVGGRGGGGSGGGGSGGGGSGPALPEGPLVRKFHHLVSPFVGQQVVKTGGSSKKLQPASLQSLWLQDTQVHGKKLFLRFDLDEEMGPPGSSPTPEPPQKEVQKEGAADPKQVGEPSGQKTLDGSSRSAELVPQGEDDSEYLERDAPAGDAGRWLRVSFGLFGSVWVNDFSRAKKANKRGDWRDPSPRLVLHFGGGGFLAFYNCQLSWSSSPVVTPTCDILSEKFHRGQALEALGQAQPVCYTLLDQRYFSGLGNIIKNEALYRAGIHPLSLGSVLSASRREVLVDHVVEFSTAWLQGKFQGRPQHTQVYQKEQCPAGHQVMKEAFGPEDGLQRLTWWCPQCQPQLSEEPEQCQFS
Consider B1, for which the “stimulation of TET1(CD) mediated hMLH1 activation by independent NEIL2 module” value (dual expression with PUFa-TET1(CD), gRNAs with both PBSa/c) was “significant stimulation of the TET1(CD) mediated hMLH1 activation”.

B2: TET1(CD)(H1671Y D1673A)-PUFa: catalytically dead TET1(CD) PUFa fusion; SEQ ID NO:110 (protein)
chain: MIDGGGGSDPKKKRKVDPKKKRKVDPKKKRKVGSTGSRNDGGGGSGGGGSGGGGSGRAGILPPKKKRKVSRGRSRLLEDFRNNRYPNLQLREIAGHIMEFSQDQHGSRFIQLKLERATPAERQLVFNEILQAAYQLMVDVFGNYVIQKFFEFGSLEQKLALAERIRGHVLSLALQMYGSRVIEKALEFIPSDQQNEMVRELDGHVLKCVKDQNGNHVVQKCIECVQPQSLQFIIDAFKGQVFALSTHPYGCRVIQRILEHCLPDQTLPILEELHQHTEQLVQDQYGNYVIQHVLEHGRPEDKSKIVAEIRGNVLVLSQHKFASNVVEKCVTHASRTERAVLIDEVCTMNDGPHSALYTMMKDQYANYVVQKMIDVAEPGQRKIVMHKIRPHIATLRKYTYGKHILAKLEKYYMKNGVDLGDPKKKRKVDPKKKRKVGGRGGGGSGGGGSGGGGSGPAELPTCSCLDRVIQKDKGPYYTHLGAGPSVAAVREIMENRYGQKGNAIRIEIVVYTGKEGKSSHGCPIAKWVLRRSSDEEKVLCLVRQRTGHHCPTAVMVVLIMVWDGIPLPMADRLYTELTENLKSYNGHPTDRRCTLNENRTCTCQGIDPETCGASFSFGCSWSMYFNGCKFGRSPSPRRFRIDPSSPLHEKNLEDNLQSLATRLAPIYKQYAPVAYQNQVEYENVARECRLGSKEGRPFSGVTACLDFCAHPYRAIHNMNNGSTVVCTLTREDNRSLGVIPQDEQLHVLPLYKLSDTDEFGSKEGMEAKIKSGAIEVLAPRRKKRTCFTQPVPRSGKKRAAMMTEVLAHKIRAVEKKPIPRIKRKNNSTTTNNSKPSSLPTLGSNTETVQPEVKSETEPHFILKSSDNTKTYSLMPSAPHPVKEASPGFSWSPKTASATPAPLKNDATASCGFSERSSTPHCTMPSGRLSGANAAAADGPGISQLGEVAPLPTLSAPVMEPLINSEPSTGVTEPLTPHQPNHQPSFLTSPQDLASSPMEEDEQHSEADEPPSDEPLSDDPLSPAEEKLPHIDEYWSDSEHIFLDANIGGVAIAPAHGSVLIECARRELHATTPVEHPNRNHPTRLSLVFYQHKNLNKPQHGFELNKIKFEAKEAKNKKMKASEQKDQAANEGPEQSSEVNELNQIPSHKALTLTHDNVVTVSPYALTHVAGPYNHWVID
In the case of B2, the “hMLH1 expression without TET1 catalytic activity” value (GADD45A expressed with catalytically dead TET1(CD) fusion or without TET1(CD) fusion) is “no hMLH1 expression was detected”.

B3: NEIL2: NEIL2 glycosylase enhancer, tested fused to PUFa-TET1(CD) (either PUFa terminus) or to PUFc (protein)
chain: MLPEGPLVRKFHHLVSPFVGQQVVKTGGSSKKLQPASLQSLWLQDTQVHGKKLFLRFDLDEEMGPPGSSPTPEPPQKEVQKEGAADPKQVGEPSGQKTLDGSSRSAELVPQGEDDSEYLERDAPAGDAGRWLRVSFGLFGSVWVNDFSRAKKANKRGDWRDPSPRLVLHFGGGGFLAFYNCQLSWSSSPVVTPTCDILSEKFHRGQALEALGQAQPVCYTLLDQRYFSGLGNIIKNEALYRAGIHPLSLGSVLSASRREVLVDHVVEFSTAWLQGKFQGRPQHTQVYQKEQCPAGHQVMKEAFGPEDGLQRLTWWCPQCQPQLSEEPEQCQFS
Consider B3, for which the “increase in gene activation with NEIL2 in the PUFa-TET1CD fusion (repeat experiment)” value (MLH1 gRNAs, NEIL2 at either PUFa terminus) was “four-fold increase in gene activation”. For the same molecule, the “increase in hMLH1 expression with NEIL2 fused to PUFc” value (co-expressed with PUFa-TET1(CD), gRNAs with PBSa/c, RT-quantitative PCR) is on record as 7 fold. Further, the “hMLH1 activation by DNA glycosylase two-in-one effector fusions (in words)” value (fusions to PUFa-TET1(CD), gRNA 5xPBSa, HEK293T, 3 days) was “enhanced activation of hMLH1”. For the same molecule, the “effect on TET1-mediated gene activation when gRNA lacked PBSc” value (gRNA scaffold with PBSa only) is listed as “no effect on TET1-mediated gene activation”. Further, under “two-in-one fusion to PUFa-TET1(CD)”, the “hMLH1 activation relative to TET1 effector alone” value stood at 3 fold.
